Test results from patent publication US12077763B2, “RNA-based control of powdery mildew” (Greenlight Biosciences, Inc., priority 2021, dated 2024).

Tested on: E. necator
Assay: Leaf disc assay, dry inoculum (settling tower), decrease in disease severity / hyphal growth (Example 2)
Details: decrease in disease severity (hyphal growth) relative to untreated control, value ± SE; for % decrease =/− SE TP1: time point 1 (untreated control hyphal growth ≥50%); for % decrease =/− SE TP2: time point 2

Molecule | % decrease =/− SE TP1 [%] | % decrease =/− SE TP2 [%]
GS1822: dsRNA trigger SEQ ID NO 206; gene target Putative phospholipid-transporting ATPase C6C3.06c (nucleic acid) DNA: TCTCTTCGCGACCGATATCCATTTCCTGAGGGTAACAGAGAATGATCTTCAGCACTGTCTGGGTTGTATCTGCCAGTTCCCTCAACATCTGGGTCGTCCCTCAATAAGCTATGTAAGTCCTCTTCAGCGTAGTCTAAATTCCTTGGGGCCCCATTTCTTCTTCCTAACCCTCTGAATCCGCTCATGCGTAGATTTCTCAACGGAATATTGCTTTCAGTTCTCCAGTCATGCGCTTTCGGTTTGATCCCTTGTTCAAGCTCCTGGATATCTAAATCCAGATCGGAGTCCGAATCAGCTTGAGGTGGAATTTGATCGCCCTGATGATAATATGAGCCCGAAGACATGCCTCATTGTATTTTATCGTTTGATCTCTATAATCTCCTAGGTGATGTTATAAAGCTTGACCGCATAAAATCGGTTAATCATTTAAGCAAATGCAGTTGCGGTGTGTCATATCTTTCACGGCAGCATCTAGTATGTCTAGTATGGCTGCTACTGTATTTTAAATAAACCAAAACATGTTCAACACATTTCATAAGGTATAAGAAGGATTGTGAATATAATTTACTGGTAAATTTTAAATCATAGTTGAAAA | 23 ± 5 | 16 ± 4
GS1821: dsRNA trigger SEQ ID NO 131; gene target ABC transporter ATP-binding protein ARB1 (nucleic acid) DNA: AACACCATTAGGCCCTACCAAAGCTGTTCGAGAGTCCATATCAACACCTAGATCCAAATGTCTGTATAAATCATCTTTAGGATCACCAGAGTATGAAAAAGTAACATCGTCAAATGATAACACTGGTGGAGGAAGTTTTTCCACGTCTGCAAATCTGAAAGTAAAGATACGGTCAGGCTCAACTTTTTGAATGAAGCCATCTGCTTCCATCTTGTCTAGTATTTTTTGTCGTGATTTAGCCTGTCTGACTAAGTTGGCATAAGTACCAGCAGATGCAATAAATTTTTTGATATGAGCGATTTCGTCTTGTTGCTTGTGATAAGCTTTCATTTGGTTGACTTCTAACTCAGAGCGGGTCTTTTGGTATGTATCATAATTTCCACCATAATATGTAAGTTGTTTTTGCCGCATATCAATCATATTGGTGCAGACTCCATTTAGAAAGTCCATTGAATGAGACACTAATACAAGACTTCGATCCCACTTCTTAAGATATTCTTCAAGCCACACACAAGCTTCCAAGTCTAAGTGCGCAGTCGGATCATCAAGTAGAAGTAAAGATGGCTTAACAAAAAGGGCTTTTGCTAAAGCTACA | 29 ± 5 | 19 ± 6
GS1819: dsRNA trigger SEQ ID NO 209; gene target Putative ATP-dependent RNA helicase PB1A10.06c (nucleic acid) DNA: CTGGTGCCCTTAACTTGATGGTAAGATTATTCGGCAGAGTTTTTACCATTTGAATATTTGGTATTGATTTATATCCTTGAGCCTCATTTATTTGCTGGATAGCCCAAGCCTTAAACGCAGATCTTTCTTTTCTAGGCGTATTCTCAATTTCATCGCAATCATCAGAACTTTCATTCTCATCACGGCTACTTTCTTTACTGCTATCTGACTCGTAATCAGATAAATTTGGTCCAATTTTATCTCCAACGTCTTCTGAGGAATTTGTCATGTTTCCTATGGTATCACGCTGGATTGACATACTTGAATCTGAGTTTATACCTTCCCATTCTGATTCATCATCGGTGACAGGCTTGCGAATATCAAGAGAAAATTTAGATACAATGCCGCCTCGTCGTTTTCTTTTCCCCAGAATAGGAATTCCCTCCTTACTTATTTCGAGTGGCTTTTTTTAATCCAGCTCCCACAGTTATATCTGTTTGCTTCTGAGTAGTAAGTACTGAAGCTTTAGAGGTCTCATCGATATTATCGTCACATGGAGATATTCTCAGATCATCATTGGTTACAGTACTCTCATCGGAATTGAATTGATTTTCGTT | 12 ± 6 | 8 ± 9
GS1825: dsRNA trigger SEQ ID NO 141; gene target Serine/threonine-protein kinase cek1 (nucleic acid) DNA: CGACCGATTAATCCCATTCTAGACAAGCCAAAATCTGTCAATTTAAGATGGCCTTTCTGATCAATTAAGAGATTGTCAGGTTTAAGATCTCGATGAACTATCCCTCGACTATGAAGATGTTTGACCCCTAGGATAACCTCACCTAAGTATTTTCTTGCCCAATCCTCTTGAAGACCGCCTAAAGCCTTTATAAGTGACGCACAGTCGCCTCCATTCAAATATTCCATAACCAAGTAGAGATAGTCTTTACTTGAGAATGTCCAGTATAATTTAGCTACAAAGTCACTCTCACCTTGCCACATCATGATTGCACGTTCAGCTTTAACGTTAGTTACCTGATTTTTGGCTACCATATCGGCTTTTTTAAGTACTTTGATTGCATAGTAGTCACCTGTAGATTTTTTCTTGGCAAGATAAACACTTCCGAATGCACCTTTACTGATAGGTTTTATTATTTCAAAGTCTTTTATGGAGGGTGGAACAATACGGGCTTGGGGAACACCGACAGTTGATAAACGAGGTGATGGAGGTAGTCGAGATGGGTCAGAGCCTGCAGCAGAAGATTGACGTCTATGGTGATGAGGTAGAAGAGCA | 28 ± 5 | 18 ± 6
GS1826: dsRNA trigger SEQ ID NO 180; gene target Adenosylhomocysteinase (nucleic acid) DNA: CGCGAGTAAGATTATATGACGACCATTCTTCATTAGAAAACGATCGACTTGGGGCTTAATATTTTGAACGCTTTGTGCATTAGCTTTAAGCCATGCGACATCTATTTCAATGTCAAAGTGTCCAATATTGCAAACAATAGCATCGTTAGGCATAACTTCAAAATGTTTTCCTACTAAAATGTCACGGCATCCTGTAGTAGTTACGAAGATCTGAGCTTGACTTGCGGCCTTTTCCATTGTGGTGACTTGGAAGCCAGAAACTGCAGCTTGTAAAGCATTTATAGGGTCAACCTCAGTAATTAGTACACGTGCACCCATACCCTGAAGAGCTAATGCACACCCTTTTCCAACATCACCAAAACCAGCAACAACGGCAATTTTTCCAGCAATCATAACATCGGTGGCTCGTTTAATACCATCGATCAAAGACTCGCGGCAGCCATAGAGATTGTCAAACTTAGACTTTGTGACAGAATCATTGACGTTAACCGCAGGCACGAGCAAAGTATTGTTTTTTAACATTTTATATAAATGGTGAACTCCAGTAGTGGTTTCCTCAGATACACCAAAGCAACCTTTTAACATTTCTGGATA | 19 ± 6 | 6 ± 5
GS1823: dsRNA trigger SEQ ID NO 158; gene target Guanine nucleotide-binding protein subunit beta-like protein (nucleic acid) DNA: TAGCCAGTATCTGTTAGGCGAAAAAACAAGCGCATGGATCAAATCACCAGCATTGAGAGAATATAAATGCTTAGACTCATTTAGATCCCACAACATAGTAGTCCCATCTTTCCCACCTGATGCGCAGAGAGAACCGTCCGGCGAGATGGTGACAGTATTTATGTAACCATTGTGGCCAATATGGTCAGTCTGTAGTTTACAAGAGGATAATTCCCAGACCTTCACAAGTTTGTCCCAGCTACTGCTGACAATGACTGGATTTTGTGGATTTGGGCTGAATCGTACACAAGATACCCAATCATTATGACCTTTTTCAGTAATGGTGAACTTGCAATCACCTAGAGTATTCCAGAGCTTAATTGTTCGATCACGAGAGCCCGAGACAATTTGCCTGTTGTCAGCGGAAAAAGAAACAGAAAGAACATCATTTGTGTGGCCGACAAATCTCCTTGTTGTGGTTCCTGTTGCAAGCTCCCAGAGTCGGAGAGTTTTATCCCAAGAAGCAGATAGAGCATAAGCACCATCAGAAGAAATTACACAGTCGGAAACTATATGAGAGTGGCCATGAAGTGATCGCTTTGGGTAACCGTAGGAA | 31 ± 8 | 26 ± 8
GS1824: dsRNA trigger SEQ ID NO 200; gene target WD repeat domain-containing protein 83 (nucleic acid) DNA: CTTGCCATCTCTTCCAACCTTTCTCTTACCATCAAACTTTGTTCCTTTTACTGTGATCCTCTCGACAAGTTTTCCGCTCAATGTATCCCAGACAACCACTTCACCATCTTGTCCTTCAATATTCTCGTTTCCAGAAAGTATCCATCTCTCTCTTCCACCAAAACAGTTCCATATTCGAAATTCTTTGTTTTCCCAGCAATCTGCACGATAACTCCTTAGTAATTTACCATTCTCGGTATCCATTAGTCTAAGCTGACTATCCAGTCCACCTACAAGTAGACCTTTTTTATCTATTGTCTTCCTTAGACATGTCACAGGAGCACCAATAACATCGACAACAATTTGTCCCATTCTAATGTCGTATTTCCTAACTTTTCCATCGACACTACTGGTCCATATCTCGCTATCACTCGCTAATACGCAGCTCACACTATCACCAGCCTCTGTTAGAACCATAACTGGCTTAGCACTCGAGCTCTTCACATCCCAGATACGAGCACTGGCATCAAAACCTCCACTAATAAGAAGACTGGCTCCATCCCCAGCAAAAGTAACGGTATTGATGCGTGCCGAATGACCATTGTTGCCACTAAAT | 26 ± 7 | 19.5 ± 8
GS1820: dsRNA trigger SEQ ID NO 164; gene target Mitochondrial carrier protein LEU5 (nucleic acid) DNA: TTTTTTACAGCCTCTTTGGGAAATCTTATGGATTGAGGCGAAGGCGGAACTTCATTATATATGATTTTGCAAATGTGTGAAAAGCTTGAGCTCGCACCTTTCTTTGTTTCAAAAGCTAGCCGAACCCTTATGACTTCTAAGGGATATGTGAAGAAAACACTAGCGACGCCTGCTAAACTGCCACTTAACAATCTTCGTAATGATGTTTCTTGCGTAGGTGATGATATAAGAAATGATCGTATTTGCTCGTAGGTTAAAAACTTGATCGCAGCATAAGGAAATATCCGAATTATAGTGGCAGAATGGCCACGAAATAGACCACTAATTCCATCAGTAGCTTTGATTTGCCGTATAGCAGTCACAACGCCGAGCCAGCTCCCAGCGTATCTGGAAAATTGTGGATTAGAAGATTGGAATAATATCTTCACACGATCTAAAGGTGCCACTATAGTTTTTGCCGCACTCCCTGCTAGTCCTCCAGCTAATCCTGACCGCCATATGAATCCCAAAGATTGCTTTTCATGAGTTTGGGATTTTGATGAATCTTTTTTATTTTTCGTAGAAGGGTATACTGCAATATTACTTTCATATAAAT | 23 ± 4 | 10 ± 6
